Results reported in the supplement of paper PMC7877785.
± gives the uncertainty stated by the source.

Assay: self-splicing fitness, log relative to wild type (ln ratio); higher = more splicing; Tetrahymena group I intron in knt gene, E. coli kanamycin selection, DiMSum; sequences stand for … in CUCUCU…GGAGGGAAAAGUUAUCAGGCAUGCACCUGGUAGCUAGUCUUUAAACCAAUAGAUUGCAUCGGUUUAAAAGGCAAGACCGUCAAAUUGCGGGAAAGGGGUCAACAGCCGUUCAGUACCAAGUCUCAGGGGAAACUUUGAGAUGGCCUUGCAAAGGGUAUGGUAAUAAGCUGACGGACAUGGUCCUAACCACGCAGCCAAGUCCUAAGUCAACAGAUCUUCUGUUGAUAUGGAUGCAGUUCACAGACUAAAUGUCGGUCGGGGAAGAUGUAUUCUUCUCAUAAGAUAUAGUCGGACCUCUCCUUAAUGGGAGCUAGCGGAUGAAGUGAUGCAACACUGGAGCCGCUGGGAACUAAUUUGUAUGCGAAAGUAUAUUGAUUAGUUUUGGAGUACUCGUGGUCG
How it was run: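 Colonies from six replicate transformations of E. coli BL21(DE3) were pooled and amplicon-sequenced on an Illumina HiSeq 2500. The library placed an intron with all eight P1ex-region nucleotides randomised inside the knt kanamycin-resistance gene on pET-22b(+), and cells grew overnight at 37°C or 30°C on LB agar with or without 25 μg/mL kanamycin (plus 100 μg/mL carbenicillin, 50 μM IPTG, 0.2% rhamnose). Fitness is the DiMSum error-weighted combination of wild-type-normalised replicate fold changes, kanamycin versus none.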

Row | Sequence | self-splicing fitness (ln) (30 °C) | self-splicing fitness (ln) (37 °C)
1 | AGGCAGCAAUAUUACGAACA | -1.45 ± 0.11 | -0.167 ± 0.14
2 | UUGAAGCAAUAUUACGCCCU | -0.0294 ± 0.13 | 0.698 ± 0.16
3 | AGUAAGCAAUAUUACGGCAA | -0.915 ± 0.11 | -0.179 ± 0.096
4 | ACCAAGCAAUAUUACGAUAG | -4.36 ± 0.23 | -2.7 ± 0.21
5 | GAUCAGCAAUAUUACGUUAG | -2.05 ± 0.12 | -1.92 ± 0.17
6 | GCGCAGCAAUAUUACGUCUG | -2.4 ± 0.14 | -2.99 ± 0.3
7 | CUCUAGCAAUAUUACGAGUA | – | -1.18 ± 0.21
8 | UAGUAGCAAUAUUACGAGUG | -1.66 ± 0.081 | -0.549 ± 0.083
9 | AGCAAGCAAUAUUACGGGUA | -1.32 ± 0.081 | -0.594 ± 0.09
10 | GUCGAGCAAUAUUACGGCCA | -1.28 ± 0.36 | -0.721 ± 0.27
11 | UAGUAGCAAUAUUACGGUGA | -2.29 ± 0.42 | -1.46 ± 0.24
12 | CAUGAGCAAUAUUACGAGCG | -0.045 ± 0.092 | 0.443 ± 0.11
13 | AGGCAGCAAUAUUACGGUGC | -3.54 ± 0.16 | -2.89 ± 0.2
14 | UACCAGCAAUAUUACGGUCU | -0.501 ± 0.056 | 0.24 ± 0.067
15 | GUCAAGCAAUAUUACGCACA | -1.21 ± 0.12 | -0.776 ± 0.13
16 | AACUAGCAAUAUUACGUAGA | -1.76 ± 0.079 | -0.779 ± 0.11
17 | GACCAGCAAUAUUACGCUCA | -0.152 ± 0.059 | -0.295 ± 0.079
18 | GAACAGCAAUAUUACGAUCU | -1.33 ± 0.055 | -0.287 ± 0.078
19 | AGACAGCAAUAUUACGCUGG | -3.98 ± 0.31 | -3.5 ± 0.3
20 | CCCGAGCAAUAUUACGUGCG | -4.04 ± 0.21 | -2.82 ± 0.21
21 | CACCAGCAAUAUUACGUAUA | -4.42 ± 0.24 | -2.33 ± 0.18
22 | GCUAAGCAAUAUUACGCAAA | -2.6 ± 0.26 | -0.986 ± 0.17
23 | GGAUAGCAAUAUUACGAAGG | -2.12 ± 0.24 | -2.02 ± 0.26
24 | ACACAGCAAUAUUACGAUAC | -2.58 ± 0.26 | -2.69 ± 0.25
25 | CGUAAGCAAUAUUACGAAAA | -3.49 ± 0.31 | -1.49 ± 0.16

Row | Sequence | self-splicing fitness (ln) (30 °C) | self-splicing fitness (ln) (37 °C)
26 | GGAUAGCAAUAUUACGUCGU | -0.886 ± 0.1 | -0.841 ± 0.12
27 | GUGGAGCAAUAUUACGAACU | -0.836 ± 0.28 | -1.14 ± 0.42
28 | CAGAAGCAAUAUUACGUUGG | -2.15 ± 0.11 | -0.698 ± 0.1
29 | GGGUAGCAAUAUUACGCUAG | – | -1.24 ± 0.26
30 | CACAAGCAAUAUUACGGAUU | -3.91 ± 0.2 | -2.61 ± 0.2
31 | UUUUAGCAAUAUUACGUGUU | -4.5 ± 0.46 | -3.09 ± 0.24
32 | ACCGAGCAAUAUUACGUAAA | -4.22 ± 0.29 | -1.66 ± 0.19
33 | ACUAAGCAAUAUUACGCAAG | -1.79 ± 0.074 | -1.49 ± 0.096
34 | CCUCAGCAAUAUUACGUAAC | – | -2.13 ± 0.47
35 | UAUCAGCAAUAUUACGGCAU | -1.14 ± 0.071 | -0.0824 ± 0.075
36 | CGAGAGCAAUAUUACGUGCG | -3.43 ± 0.29 | -1.8 ± 0.2
37 | GUAGAGCAAUAUUACGAUUG | -2.82 ± 0.16 | -2.4 ± 0.2
38 | GGAUAGCAAUAUUACGCUGU | -1.65 ± 0.25 | -2.68 ± 0.38
39 | GUAGAGCAAUAUUACGGCUU | -0.97 ± 0.075 | -0.03 ± 0.12
40 | CGUAAGCAAUAUUACGUGAG | -2.17 ± 0.11 | -1.09 ± 0.092
41 | CGUUAGCAAUAUUACGGUAA | -1.58 ± 0.26 | -0.129 ± 0.28
42 | AGCUAGCAAUAUUACGACCG | -1.53 ± 0.1 | -1.06 ± 0.13
43 | GUACAGCAAUAUUACGAGAC | -2.09 ± 0.24 | -2.5 ± 0.28
44 | GAUGAGCAAUAUUACGCGCU | -1.97 ± 0.23 | -1.88 ± 0.45
45 | GUGAAGCAAUAUUACGCCGC | -2.25 ± 0.16 | -1.5 ± 0.26
46 | GUCCAGCAAUAUUACGGUUU | -0.181 ± 0.052 | 0.389 ± 0.064
47 | AUUUAGCAAUAUUACGGGCG | -1.77 ± 0.12 | -0.764 ± 0.12
48 | GCGAAGCAAUAUUACGUCAA | -3.02 ± 0.19 | -2.05 ± 0.15
49 | UAUUAGCAAUAUUACGCCGA | -2.3 ± 0.31 | -0.195 ± 0.28
50 | AACCAGCAAUAUUACGAGGG | -3.27 ± 0.11 | -2.1 ± 0.11

Row | Sequence | self-splicing fitness (ln) (30 °C) | self-splicing fitness (ln) (37 °C)
51 | UCUUAGCAAUAUUACGUAAC | -3.34 ± 0.26 | -1.95 ± 0.32
52 | AACGAGCAAUAUUACGUAAG | -4.14 ± 0.3 | -0.595 ± 0.14
53 | UGAUAGCAAUAUUACGGAAG | -1.99 ± 0.14 | -1.64 ± 0.21
54 | GGCGAGCAAUAUUACGGUGC | -2.76 ± 0.16 | -1.86 ± 0.23
55 | GAUCAGCAAUAUUACGCCGA | -0.954 ± 0.12 | -0.727 ± 0.11
56 | GUCAAGCAAUAUUACGGGGC | -5.02 ± 0.45 | -3.14 ± 0.27
57 | UCCGAGCAAUAUUACGUCCG | -2.24 ± 0.24 | –
58 | UUCAAGCAAUAUUACGAUAA | -0.317 ± 0.048 | 0.226 ± 0.059
59 | CUUUAGCAAUAUUACGAUGC | -2.95 ± 0.24 | –
60 | GGUAAGCAAUAUUACGUUAG | -3.15 ± 0.18 | -1.72 ± 0.19
61 | AGUGAGCAAUAUUACGUCAG | -3 ± 0.21 | -2.56 ± 0.23
62 | CCAUAGCAAUAUUACGAGUA | -3.41 ± 0.32 | -2.06 ± 0.19
63 | GAGCAGCAAUAUUACGUAUG | -2.86 ± 0.14 | -2.5 ± 0.2
64 | AGUAAGCAAUAUUACGUGGC | -2.68 ± 0.16 | -2.54 ± 0.22
65 | AUACAGCAAUAUUACGAUGA | -1.42 ± 0.11 | -0.0115 ± 0.1
66 | UGGCAGCAAUAUUACGACUA | 0.138 ± 0.07 | 0.38 ± 0.1
67 | CCCGAGCAAUAUUACGCUAU | -4.39 ± 0.34 | -2.49 ± 0.2
68 | CCUAAGCAAUAUUACGAAAU | -2.79 ± 0.18 | -2.77 ± 0.29
69 | AUGGAGCAAUAUUACGUAGA | – | -2.39 ± 0.42
70 | CUCCAGCAAUAUUACGGGUC | -3.88 ± 0.24 | -2.2 ± 0.22
71 | AUGUAGCAAUAUUACGGCAU | -1.88 ± 0.12 | -1.69 ± 0.16
72 | GUCAAGCAAUAUUACGCAAU | -2 ± 0.061 | -1.32 ± 0.076
73 | AAAUAGCAAUAUUACGCUCC | -1.48 ± 0.31 | 0.174 ± 0.42
74 | AAGCAGCAAUAUUACGCUGU | – | -2.7 ± 0.23
75 | GUUAAGCAAUAUUACGGGUA | -2.01 ± 0.14 | -1.39 ± 0.12

Row | Sequence | self-splicing fitness (ln) (30 °C) | self-splicing fitness (ln) (37 °C)
76 | ACCAAGCAAUAUUACGGUCA | -1.36 ± 0.082 | -0.9 ± 0.086
77 | UGUGAGCAAUAUUACGUUGG | -2.86 ± 0.31 | -2.85 ± 0.44
78 | UGUUAGCAAUAUUACGCUUU | -2.85 ± 0.2 | -1.32 ± 0.14
79 | CGUGAGCAAUAUUACGGUAU | -3.54 ± 0.25 | -3.1 ± 0.34
80 | CAAGAGCAAUAUUACGGCCA | -2.08 ± 0.38 | -2.62 ± 0.48
81 | CCGUAGCAAUAUUACGCCAA | -3.21 ± 0.41 | -2.77 ± 0.4
82 | AGAUAGCAAUAUUACGCACC | 0.321 ± 0.21 | 0.267 ± 0.34
83 | AACAAGCAAUAUUACGAGAG | -3.79 ± 0.22 | -2.24 ± 0.14
84 | CCGCAGCAAUAUUACGGUCU | -4.37 ± 0.2 | -3.65 ± 0.23
85 | AUAUAGCAAUAUUACGUCGC | -2.48 ± 0.27 | -1.31 ± 0.37
86 | CGUCAGCAAUAUUACGCUCU | -1.14 ± 0.12 | -0.257 ± 0.12
87 | GCUAAGCAAUAUUACGGAAU | -1.68 ± 0.12 | -0.857 ± 0.13
88 | GAACAGCAAUAUUACGGGUU | -2.91 ± 0.1 | -2.04 ± 0.11
89 | UAUGAGCAAUAUUACGGUUA | -1.76 ± 0.15 | 0.43 ± 0.12
90 | UCAAAGCAAUAUUACGUUCG | -1.17 ± 0.087 | -0.407 ± 0.12
91 | GACAAGCAAUAUUACGUGCC | -1.69 ± 0.14 | -1.21 ± 0.17
92 | ACGGAGCAAUAUUACGCUGA | -1.48 ± 0.17 | -1.9 ± 0.21
93 | AGCCAGCAAUAUUACGUAGU | -2.72 ± 0.12 | -1.83 ± 0.14
94 | CCGGAGCAAUAUUACGCUGG | -1.99 ± 0.21 | –
95 | CGCAAGCAAUAUUACGGCGG | -0.329 ± 0.073 | 0.31 ± 0.09
96 | CAUAAGCAAUAUUACGACCA | – | -2.1 ± 0.36
97 | AAUAAGCAAUAUUACGAAGC | -3.57 ± 0.43 | –
98 | AAACAGCAAUAUUACGAAGC | -3.98 ± 0.2 | -2.75 ± 0.18
